Assay results from the supplement of paper PMC7877785.
± gives the uncertainty stated by the source.

Test: self-splicing fitness, log relative to wild type (ln ratio); higher = more splicing; Tetrahymena group I intron in knt gene, E. coli kanamycin selection, DiMSum; sequences stand for … in CUCUCU…GGAGGGAAAAGUUAUCAGGCAUGCACCUGGUAGCUAGUCUUUAAACCAAUAGAUUGCAUCGGUUUAAAAGGCAAGACCGUCAAAUUGCGGGAAAGGGGUCAACAGCCGUUCAGUACCAAGUCUCAGGGGAAACUUUGAGAUGGCCUUGCAAAGGGUAUGGUAAUAAGCUGACGGACAUGGUCCUAACCACGCAGCCAAGUCCUAAGUCAACAGAUCUUCUGUUGAUAUGGAUGCAGUUCACAGACUAAAUGUCGGUCGGGGAAGAUGUAUUCUUCUCAUAAGAUAUAGUCGGACCUCUCCUUAAUGGGAGCUAGCGGAUGAAGUGAUGCAACACUGGAGCCGCUGGGAACUAAUUUGUAUGCGAAAGUAUAUUGAUUAGUUUUGGAGUACUCGUGGUCG
Procedure, shortened: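 A randomised library covering all eight P1ex-region intron nucleotides was built with the intron in the knt kanamycin-resistance gene on pET-22b(+) and held in E. coli BL21(DE3). Cells were grown overnight at 37°C or 30°C on LB agar, with or without 25 μg/mL kanamycin, plus 100 μg/mL carbenicillin, 50 μM IPTG and 0.2% rhamnose, and pooled colonies were amplicon-sequenced on an Illumina HiSeq 2500. DiMSum fitness is the error-weighted combination of wild-type-normalised replicate fold changes, kanamycin versus none.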

## ACUAAGCAAUAUUACGAUUU
30 °C
  self-splicing fitness (ln): -0.208 ± 0.062
37 °C
  self-splicing fitness (ln): -0.0751 ± 0.09

## ACUAAGCAAUAUUACGCACC
30 °C
  self-splicing fitness (ln): -0.776 ± 0.12
37 °C
  self-splicing fitness (ln): -0.198 ± 0.13

## ACUAAGCAAUAUUACGCAUU
30 °C
  self-splicing fitness (ln): -1.82 ± 0.11
37 °C
  self-splicing fitness (ln): -0.321 ± 0.12

## ACUAAGCAAUAUUACGCCAU
37 °C
  self-splicing fitness (ln): -2.01 ± 0.29

## ACUAAGCAAUAUUACGCCCG
30 °C
  self-splicing fitness (ln): -0.735 ± 0.14
37 °C
  self-splicing fitness (ln): 0.678 ± 0.19

## ACUAAGCAAUAUUACGCCGG
30 °C
  self-splicing fitness (ln): -1.03 ± 0.11
37 °C
  self-splicing fitness (ln): -0.877 ± 0.18

## ACUAAGCAAUAUUACGCGGA
30 °C
  self-splicing fitness (ln): -1.96 ± 0.094
37 °C
  self-splicing fitness (ln): -0.956 ± 0.083

## ACUAAGCAAUAUUACGCUCA
30 °C
  self-splicing fitness (ln): -0.894 ± 0.12
37 °C
  self-splicing fitness (ln): -0.989 ± 0.14

## ACUAAGCAAUAUUACGCUCC
30 °C
  self-splicing fitness (ln): -1.24 ± 0.096
37 °C
  self-splicing fitness (ln): -0.322 ± 0.13

## ACUAAGCAAUAUUACGGAGU
30 °C
  self-splicing fitness (ln): -3.72 ± 0.23
37 °C
  self-splicing fitness (ln): -3.11 ± 0.21

## ACUAAGCAAUAUUACGGCCA
30 °C
  self-splicing fitness (ln): -0.942 ± 0.13
37 °C
  self-splicing fitness (ln): 0.00289 ± 0.13

## ACUAAGCAAUAUUACGGUUG
30 °C
  self-splicing fitness (ln): -3.25 ± 0.2
37 °C
  self-splicing fitness (ln): -2.5 ± 0.21

## ACUAAGCAAUAUUACGUACU
30 °C
  self-splicing fitness (ln): 0.135 ± 0.084
37 °C
  self-splicing fitness (ln): 0.635 ± 0.12

## ACUAAGCAAUAUUACGUAUC
30 °C
  self-splicing fitness (ln): -2.91 ± 0.15
37 °C
  self-splicing fitness (ln): -2.15 ± 0.19

## ACUAAGCAAUAUUACGUCAU
30 °C
  self-splicing fitness (ln): -3.64 ± 0.16
37 °C
  self-splicing fitness (ln): -2.28 ± 0.15

## ACUAAGCAAUAUUACGUCUA
30 °C
  self-splicing fitness (ln): -1.45 ± 0.13
37 °C
  self-splicing fitness (ln): -0.981 ± 0.12

## ACUAAGCAAUAUUACGUUUA
30 °C
  self-splicing fitness (ln): -3.27 ± 0.17
37 °C
  self-splicing fitness (ln): -2.48 ± 0.14

## ACUAAGCAAUAUUACGUUUG
30 °C
  self-splicing fitness (ln): -3.62 ± 0.18
37 °C
  self-splicing fitness (ln): -2.22 ± 0.17

## ACUCAGCAAUAUUACGAAUU
30 °C
  self-splicing fitness (ln): -0.96 ± 0.089
37 °C
  self-splicing fitness (ln): -0.208 ± 0.085

## ACUCAGCAAUAUUACGACAC
30 °C
  self-splicing fitness (ln): -1.44 ± 0.12
37 °C
  self-splicing fitness (ln): -0.127 ± 0.14

## ACUCAGCAAUAUUACGAGAU
30 °C
  self-splicing fitness (ln): -2.56 ± 0.11
37 °C
  self-splicing fitness (ln): -1.81 ± 0.11

## ACUCAGCAAUAUUACGAGGG
30 °C
  self-splicing fitness (ln): -1.85 ± 0.08
37 °C
  self-splicing fitness (ln): -1.41 ± 0.1

## ACUCAGCAAUAUUACGAUAU
30 °C
  self-splicing fitness (ln): -1.1 ± 0.081
37 °C
  self-splicing fitness (ln): -0.759 ± 0.11

## ACUCAGCAAUAUUACGCCUU
30 °C
  self-splicing fitness (ln): -0.619 ± 0.053
37 °C
  self-splicing fitness (ln): 0.491 ± 0.067

## ACUCAGCAAUAUUACGCGAA
30 °C
  self-splicing fitness (ln): -1.48 ± 0.061
37 °C
  self-splicing fitness (ln): -0.686 ± 0.069

## ACUCAGCAAUAUUACGCGCG
30 °C
  self-splicing fitness (ln): -1.21 ± 0.12
37 °C
  self-splicing fitness (ln): -0.47 ± 0.11

## ACUCAGCAAUAUUACGCGUA
30 °C
  self-splicing fitness (ln): -0.747 ± 0.11
37 °C
  self-splicing fitness (ln): -0.395 ± 0.11

## ACUCAGCAAUAUUACGCGUC
30 °C
  self-splicing fitness (ln): -3.42 ± 0.19
37 °C
  self-splicing fitness (ln): -2.06 ± 0.25

## ACUCAGCAAUAUUACGCUAC
30 °C
  self-splicing fitness (ln): -3.42 ± 0.27
37 °C
  self-splicing fitness (ln): -2.63 ± 0.23

## ACUCAGCAAUAUUACGCUAU
30 °C
  self-splicing fitness (ln): -1.9 ± 0.061
37 °C
  self-splicing fitness (ln): -0.569 ± 0.07

## ACUCAGCAAUAUUACGCUCC
30 °C
  self-splicing fitness (ln): -0.601 ± 0.12
37 °C
  self-splicing fitness (ln): -0.848 ± 0.16

## ACUCAGCAAUAUUACGGAGA
30 °C
  self-splicing fitness (ln): -0.941 ± 0.12
37 °C
  self-splicing fitness (ln): -0.997 ± 0.13

## ACUCAGCAAUAUUACGGAUU
30 °C
  self-splicing fitness (ln): -0.597 ± 0.055
37 °C
  self-splicing fitness (ln): 0.0271 ± 0.076

## ACUCAGCAAUAUUACGGGAC
30 °C
  self-splicing fitness (ln): -2.72 ± 0.17
37 °C
  self-splicing fitness (ln): -1.6 ± 0.23

## ACUCAGCAAUAUUACGGGAU
30 °C
  self-splicing fitness (ln): -1.32 ± 0.056
37 °C
  self-splicing fitness (ln): -0.522 ± 0.076

## ACUCAGCAAUAUUACGGGCC
30 °C
  self-splicing fitness (ln): -1.32 ± 0.092
37 °C
  self-splicing fitness (ln): -1.13 ± 0.11

## ACUCAGCAAUAUUACGGGUA
30 °C
  self-splicing fitness (ln): -1.57 ± 0.099
37 °C
  self-splicing fitness (ln): -0.922 ± 0.083

## ACUCAGCAAUAUUACGGUUC
30 °C
  self-splicing fitness (ln): -2.68 ± 0.14
37 °C
  self-splicing fitness (ln): -2.33 ± 0.14

## ACUCAGCAAUAUUACGGUUU
30 °C
  self-splicing fitness (ln): -0.62 ± 0.048
37 °C
  self-splicing fitness (ln): -0.291 ± 0.057

## ACUCAGCAAUAUUACGUAAG
30 °C
  self-splicing fitness (ln): -0.973 ± 0.052
37 °C
  self-splicing fitness (ln): -0.421 ± 0.078

## ACUCAGCAAUAUUACGUAAU
30 °C
  self-splicing fitness (ln): -0.934 ± 0.057
37 °C
  self-splicing fitness (ln): -0.31 ± 0.076

## ACUCAGCAAUAUUACGUACC
30 °C
  self-splicing fitness (ln): -1.39 ± 0.09
37 °C
  self-splicing fitness (ln): 0.482 ± 0.13
